The text below walks through data of publication doi:10.1101/2020.02.12.945204 (bioRxiv, 2020).

Sequences and labels used below:
B1: recombinant human galectin-4 (natural protein)
chain: MAYVPAPGYQPTYNPTLPYYQPIPGGLNVGMSVYIQGVASEHMKRFFVNFVVGQDPGSDVAFHFNPRFDGWDKVVFNTLQGGKWGSEERKRSMPFKKGAAFELVFIVLAEHYKVVVNGNPFYEYGHRLPLQMVTHLQVDGDLQLQSINFIGGQPLRPQGPPMMPPYPGPGHCHQQLNSLPTMEGPPTFNPPVPYFGRLQGGLTARRTIIIKGYVPPTGKSFAINFKVGSSGDIALHINPRMGNGTVVRNSLLNGSWGSEEKKITHNPFGPGQFFDLSIRCGLDRFKVYANGQHLFDFAHRLSAFQRVDTLEIQGDVTLSYVQI
B2: H6 flagella (polymeric flagellin) from E. coli O127:H6 (natural protein)
chain: MAQVINTNSLSLITQNNINKNQSALSSSIERLSSGLRINSAKDDAAGQAIANRFTSNIKGLTQAARNANDGISVAQTTEGALSEINNNLQRIRELTVQASTGTNSDSDLDSIQDEIKSRLDEIDRVSGQTQFNGVNVLAKDGSMKIQVGANDGQTITIDLKKIDSDTLGLNGFNVNGKGETANTAATLKDMSGFTAAAAPGGTVGVTQYTDKSAVASSVDILNAVAGADGNKVTTSADVGFGTPAAAVTYTYNKDTNSYSAASDDISSANLAAFLNPQARDTTKATVTIGGKDQDVNIDKSGNLTAADDGAVLYMDATGNLTKNNAGGDTQATLAKVATATGAKAATIQTDKGTFTSDGTAFDGASMSIDANTFANAVKNDTYTATVGAKTYSVTTGSAAADTAYMSNGVLSDTPPTYYAQADGSITTTEDAAAGKLVYKGSDGKLTTDTTSKAESTSDPLAALDDAISQIDKFRSSLGAVQNRLDSAVTNLNNTTTNLSEAQSRIQDADYATEVSNMSKAQIIQQAGNSVLAKANQVPQQVLSLLQG
B3: H48 flagella (polymeric flagellin) from commensal E. coli K12:O175:H48 (natural protein)
chain: MAQVINTNSLSLITQNNINKNQSALSSSIERLSSGLRINSAKDDAAGQAIANRFTSNIKGLTQAARNANDGISVAQTTEGALSEINNNLQRVRELTVQATTGTNSESDLSSIQDEIKSRLDEIDRVSGQTQFNGVNVLAKNGSMKIQVGANDNQTITIDLKQIDAKTLGLDGFSVKNNDTVTTSAPVTAFGATTTNNIKLTGITLSTEAATDTGGTNPASIEGVYTDNGNDYYAKITGGDNDGKYYAVTVANDGTVTMATGATANATVTDANTTKATTITSGGTPVQIDNTAGSATANLGAVSLVKLQDSKGNDTDTYALKDTNGNLYAADVNETTGAVSVKTITYTDSSGAASSPTAVKLGGDDGKTEVVDIDGKTYDSADLNGGNLQTGLTAGGEALTAVANGKTTDPLKALDDAIASVDKFRSSLGAVQNRLDSAVTNLNNTTTNLSEAQSRIQDADYATEVSNMSKAQIIQQAGNSVLAKANQVPQQVLSLLQG

The target in data set [1] is B2. As to the kind of experiment: ELISA. On the technique in general: An ELISA detects its analyte on a solid surface through an enzyme-linked reagent.
Data set [2] concerns the target B3. The data set can be described thus: ELISA.
The data set “SEC” deals with the molecule itself. The data set can be described thus: SEC.

As for B1, the binding result in data set [1] and in data set [2] was “binds” each time. Take B2: the binding result in the data set “SEC” was “binds”. Regarding B3, the binding result in “SEC” was “binds”.
